Measured values published in patent publication US20100311648A1 (AstraZeneca / MedImmune, published 2010).
One block for each binder: values may come before it. Positions of bridges follow the written chain, without caps; N, C: chain ends. Non-standard residues stand in square brackets, D forms with d. dPhe(3,4,5-F3) = N[C@H](Cc1cc(F)c(F)c(F)c1)C(=O)O; dPhe(2-CF3) = N[C@H](Cc1ccccc1C(F)(F)F)C(=O)O; dPhe(3,5-F2) = N[C@H](Cc1cc(F)cc(F)c1)C(=O)O; dPhe(4-CN) = N#Cc1ccc(C[C@@H](N)C(=O)O)cc1; dPhe(3-Cl) = N[C@H](Cc1cccc(Cl)c1)C(=O)O; dPhe(2-Cl) = N[C@H](Cc1ccccc1Cl)C(=O)O; dPhe(2-Me) = Cc1ccccc1C[C@@H](N)C(=O)O; Orn = NCCC[C@H](N)C(=O)O

What was measured:
[1] = target: T1, human melanocortin-4 receptor (human, UniProt P32245 1-332); assay: [I125]-NDP-α-MSH competition, hMC4-R HEK-293 membranes
T1 construct: whole, on cells; functional assay: HEK293-T-REx-MC4-R cells induced with 0.1 or 10 ng/mL doxycycline; also called hMC4-R; MC4-R
Protocol: A competitive inhibition binding assay was performed for exemplified peptides according to the invention using membrane homogenates prepared from HEK-293 cells that express recombinant hMC4-R, hMC3-R, or hMC5-R, and from B-16 mouse melanoma cells (containing endogenous MC1-R). In some instances, HEK-293 cells that express recombinant hMC1-R were employed. Assays were performed in 96 well GF/B Millipore multiscreen filtration plates (MAFB NOB10) pre-coated with 0.5% bovine serum albumin (Fraction V). […] After incubation for 60 minutes at 37° C., the assay mixture was filtered and the membranes washed three times with ice-cold buffer. Filters were dried and counted in a gamma counter for bound radioactivity. […] Each assay was conducted in triplicate and the actual mean values are described, with results less than 0% reported as 0%. Ki values for test peptides of the present invention were determined using Graph-Pad Prism® curve-fitting software.

[2] = target: T1, human melanocortin-4 receptor; assay: cell-based or functional assay

T1 sequence (P32245 whole entry): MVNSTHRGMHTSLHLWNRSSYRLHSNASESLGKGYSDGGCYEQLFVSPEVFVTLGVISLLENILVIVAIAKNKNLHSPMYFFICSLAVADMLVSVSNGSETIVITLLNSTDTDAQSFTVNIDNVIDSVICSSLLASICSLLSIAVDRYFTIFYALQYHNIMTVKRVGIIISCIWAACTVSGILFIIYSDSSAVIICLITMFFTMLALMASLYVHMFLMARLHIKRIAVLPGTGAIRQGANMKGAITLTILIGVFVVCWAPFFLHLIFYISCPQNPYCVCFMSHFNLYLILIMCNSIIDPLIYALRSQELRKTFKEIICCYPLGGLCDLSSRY

Binder: Ac-REE[dPhe(4-CN)]RW[Orn]-OH (lactam 2-7) [Ac-Arg-cyclo(Glu-Glu-D-Phe(4-CN)-Arg-Trp-Orn)-OH]
Ki [1]: 1090 nM | EC50, cAMP, 10 ng/mL Doxycycline [2]: 269 nM | Intrinsic Activity, cAMP, 0.1 ng/mL Doxycycline [2]: 2% | Intrinsic Activity, cAMP, 10 ng/mL Doxycycline [2]: 69%

Binder: Ac-REN[dPhe(4-CN)]RW[Orn]-OH (lactam 2-7, also called No. 85) [Ac-Arg-cyclo(Glu-Asn-D-Phe(4-CN)-Arg-Trp-Orn)-OH]
Ki [1]: 64 nM | EC50, cAMP, 0.1 ng/mL Doxycycline [2]: 15 nM | EC50, cAMP, 10 ng/mL Doxycycline [2]: 0.707 nM | Intrinsic Activity, cAMP, 0.1 ng/mL Doxycycline [2]: 36% | Intrinsic Activity, cAMP, 10 ng/mL Doxycycline [2]: 94%

B5: Ac-Arg-cyclo(Glu-Thr-D-Phe(2-Cl)-Arg-Trp-Orn)-NH2 (peptide)
peptide: Ac-RET[dPhe(2-Cl)]RW[Orn]-NH2
modifications: lactam 2-7
SMILES: CC(=O)N[C@@H](CCCNC(=N)N)C(=O)N[C@H]1CCC(=O)NCCC[C@@H](C(N)=O)NC(=O)[C@H](Cc2c[nH]c3ccccc23)NC(=O)[C@H](CCCNC(=N)N)NC(=O)[C@@H](Cc2ccccc2Cl)NC(=O)[C@H]([C@@H](C)O)NC1=O
notes: also called No. 32
Ki [1]: 11 nM | EC50, cAMP, 0.1 ng/mL Doxycycline [2]: 18 nM | EC50, cAMP, 10 ng/mL Doxycycline [2]: 0.543 nM | Intrinsic Activity, cAMP, 0.1 ng/mL Doxycycline [2]: 34% | Intrinsic Activity, cAMP, 10 ng/mL Doxycycline [2]: 96%

Binder: Ac-REN[dPhe(3,5-F2)]RW[Orn]-NH2 (lactam 2-7, also called No. 76) [Ac-Arg-cyclo(Glu-Asn-D-Phe(3,5-diF)-Arg-Trp-Orn)-NH2]
Ki [1]: 20 nM | EC50, cAMP, 0.1 ng/mL Doxycycline [2]: 3 nM | EC50, cAMP, 10 ng/mL Doxycycline [2]: 0.135 nM | Intrinsic Activity, cAMP, 0.1 ng/mL Doxycycline [2]: 53% | Intrinsic Activity, cAMP, 10 ng/mL Doxycycline [2]: 85%

Binder: Ac-R[Orn]N[dPhe(3,4,5-F3)]RWE-NH2 (lactam 2-7) [Ac-Arg-cyclo(Orn-Asn-D-Phe(3,4,5-triF)-Arg-Trp-Glu)-NH2]
EC50, cAMP, 10 ng/mL Doxycycline [2]: 0.235 nM | Intrinsic Activity, cAMP, 0.1 ng/mL Doxycycline [2]: 24% | Intrinsic Activity, cAMP, 10 ng/mL Doxycycline [2]: 100%

B6: Ac-Arg-cyclo(Glu-Gln-D-Phe(3,4,5-triF)-Arg-Trp-Orn)-NH2 (peptide)
peptide: Ac-REQ[dPhe(3,4,5-F3)]RW[Orn]-NH2
modifications: lactam 2-7
SMILES: CC(=O)N[C@@H](CCCNC(=N)N)C(=O)N[C@H]1CCC(=O)NCCC[C@@H](C(N)=O)NC(=O)[C@H](Cc2c[nH]c3ccccc23)NC(=O)[C@H](CCCNC(=N)N)NC(=O)[C@@H](Cc2cc(F)c(F)c(F)c2)NC(=O)[C@H](CCC(N)=O)NC1=O
EC50, cAMP, 0.1 ng/mL Doxycycline [2]: 0.8 nM | EC50, cAMP, 10 ng/mL Doxycycline [2]: 0.1 nM | Intrinsic Activity, cAMP, 0.1 ng/mL Doxycycline [2]: 49% | Intrinsic Activity, cAMP, 10 ng/mL Doxycycline [2]: 100%

Binder: Ac-R[Orn]Q[dPhe(2-Me)]RWE-NH2 (lactam 2-7) [Ac-Arg-cyclo(Orn-Gln-D-Phe(2-Me)-Arg-Trp-Glu)-NH2]
EC50, cAMP, 0.1 ng/mL Doxycycline [2]: 0.575 nM | EC50, cAMP, 10 ng/mL Doxycycline [2]: 0.053 nM | Intrinsic Activity, cAMP, 0.1 ng/mL Doxycycline [2]: 81% | Intrinsic Activity, cAMP, 10 ng/mL Doxycycline [2]: 104%

Binder: Ac-R[Orn]Q[dPhe(3,4,5-F3)]RWE-NH2 (lactam 2-7) [Ac-Arg-cyclo(Orn-Gln-D-Phe(3,4,5-triF)-Arg-Trp-Glu)-NH2]
EC50, cAMP, 0.1 ng/mL Doxycycline [2]: 0.45 nM | EC50, cAMP, 10 ng/mL Doxycycline [2]: 0.14 nM | Intrinsic Activity, cAMP, 0.1 ng/mL Doxycycline [2]: 47% | Intrinsic Activity, cAMP, 10 ng/mL Doxycycline [2]: 100%

The remaining binders from weak to strong by Ki [1], led by results:

Ki [1]: 10 nM | EC50, cAMP, 10 ng/mL Doxycycline [2]: 1 nM | Intrinsic Activity, cAMP, 0.1 ng/mL Doxycycline [2]: 6% | Intrinsic Activity, cAMP, 10 ng/mL Doxycycline [2]: 84%
Binder: Ac-RES[dPhe(3-Cl)]RW[Orn]-NH2 (lactam 2-7, also called No. 35) [Ac-Arg-cyclo(Glu-Ser-D-Phe(3-Cl)-Arg-Trp-Orn)-NH2]

Ki [1]: 7 nM | EC50, cAMP, 0.1 ng/mL Doxycycline [2]: 0.68 nM | EC50, cAMP, 10 ng/mL Doxycycline [2]: 0.095 nM | Intrinsic Activity, cAMP, 0.1 ng/mL Doxycycline [2]: 77% | Intrinsic Activity, cAMP, 10 ng/mL Doxycycline [2]: 104%
Binder: Ac-REN[dPhe(2-CF3)]RW[Orn]-NH2 (lactam 2-7, also called No. 116) [Ac-Arg-cyclo(Glu-Asn-D-Phe(2-CF3)-Arg-Trp-Orn)-NH2]

Ki [1]: 6 nM | EC50, cAMP, 10 ng/mL Doxycycline [2]: 1 nM | Intrinsic Activity, cAMP, 0.1 ng/mL Doxycycline [2]: 8% | Intrinsic Activity, cAMP, 10 ng/mL Doxycycline [2]: 89%
B3: Ac-Arg-cyclo(Glu-Thr-D-Phe(3-Cl)-Arg-Trp-Orn)-NH2 (peptide)
peptide: Ac-RET[dPhe(3-Cl)]RW[Orn]-NH2
modifications: lactam 2-7
SMILES: CC(=O)N[C@@H](CCCNC(=N)N)C(=O)N[C@H]1CCC(=O)NCCC[C@@H](C(N)=O)NC(=O)[C@H](Cc2c[nH]c3ccccc23)NC(=O)[C@H](CCCNC(=N)N)NC(=O)[C@@H](Cc2cccc(Cl)c2)NC(=O)[C@H]([C@@H](C)O)NC1=O
notes: also called No. 36

Ki [1]: 6 nM | EC50, cAMP, 10 ng/mL Doxycycline [2]: 0.5 nM | Intrinsic Activity, cAMP, 0.1 ng/mL Doxycycline [2]: 9% | Intrinsic Activity, cAMP, 10 ng/mL Doxycycline [2]: 84%
Binder: Ac-REV[dPhe(4-CN)]RW[Orn]-NH2 (lactam 2-7, also called No. 42) [Ac-Arg-cyclo(Glu-Val-D-Phe(4-CN)-Arg-Trp-Orn)-NH2]

Ki [1]: 5 nM | EC50, cAMP, 10 ng/mL Doxycycline [2]: 0.35 nM | Intrinsic Activity, cAMP, 0.1 ng/mL Doxycycline [2]: 15% | Intrinsic Activity, cAMP, 10 ng/mL Doxycycline [2]: 89%
B4: Ac-Arg-cyclo(Glu-Pro-D-Phe(2-Cl)-Arg-Trp-Orn)-NH2 (peptide)
peptide: Ac-REP[dPhe(2-Cl)]RW[Orn]-NH2
modifications: lactam 2-7
SMILES: CC(=O)N[C@@H](CCCNC(=N)N)C(=O)N[C@H]1CCC(=O)NCCC[C@@H](C(N)=O)NC(=O)[C@H](Cc2c[nH]c3ccccc23)NC(=O)[C@H](CCCNC(=N)N)NC(=O)[C@@H](Cc2ccccc2Cl)NC(=O)[C@@H]2CCCN2C1=O
notes: also called No. 88

Ki [1]: 4 nM | EC50, cAMP, 0.1 ng/mL Doxycycline [2]: 6 nM | EC50, cAMP, 10 ng/mL Doxycycline [2]: 0.27 nM | Intrinsic Activity, cAMP, 0.1 ng/mL Doxycycline [2]: 27% | Intrinsic Activity, cAMP, 10 ng/mL Doxycycline [2]: 93%
B2: Ac-Arg-cyclo(Glu-Lys-D-Phe(3-Cl)-Arg-Trp-Orn)-NH2 (peptide)
peptide: Ac-REK[dPhe(3-Cl)]RW[Orn]-NH2
modifications: lactam 2-7
SMILES: CC(=O)N[C@@H](CCCNC(=N)N)C(=O)N[C@H]1CCC(=O)NCCC[C@@H](C(N)=O)NC(=O)[C@H](Cc2c[nH]c3ccccc23)NC(=O)[C@H](CCCNC(=N)N)NC(=O)[C@@H](Cc2cccc(Cl)c2)NC(=O)[C@H](CCCCN)NC1=O
notes: also called No. 100

Ki [1]: 4 nM | EC50, cAMP, 0.1 ng/mL Doxycycline [2]: 0.587 nM | EC50, cAMP, 10 ng/mL Doxycycline [2]: 0.068 nM | Intrinsic Activity, cAMP, 0.1 ng/mL Doxycycline [2]: 86% | Intrinsic Activity, cAMP, 10 ng/mL Doxycycline [2]: 102%
Binder: Ac-REN[dPhe(2-Me)]RW[Orn]-NH2 (lactam 2-7, also called No. 73) [Ac-Arg-cyclo(Glu-Asn-D-Phe(2-Me)-Arg-Trp-Orn)-NH2]

Ki [1]: 4 nM | EC50, cAMP, 0.1 ng/mL Doxycycline [2]: 0.666 nM | EC50, cAMP, 10 ng/mL Doxycycline [2]: 0.173 nM | Intrinsic Activity, cAMP, 0.1 ng/mL Doxycycline [2]: 40% | Intrinsic Activity, cAMP, 10 ng/mL Doxycycline [2]: 97%
Binder: Ac-REQ[dPhe(4-CN)]RW[Orn]-NH2 (lactam 2-7; also: acetate salt, acetate salt form; also called Ex 46) [Ac-Arg-cyclo(Glu-Gln-D-Phe(4-CN)-Arg-Trp-Orn)-NH2]

Ki [1]: 3 nM | EC50, cAMP, 0.1 ng/mL Doxycycline [2]: 1 nM | EC50, cAMP, 10 ng/mL Doxycycline [2]: 0.125 nM | Intrinsic Activity, cAMP, 0.1 ng/mL Doxycycline [2]: 42% | Intrinsic Activity, cAMP, 10 ng/mL Doxycycline [2]: 100%
Binder: Ac-REN[dPhe(3,4,5-F3)]RW[Orn]-NH2 (lactam 2-7, also called No. 95) [Ac-Arg-cyclo(Glu-Asn-D-Phe(3,4,5-triF)-Arg-Trp-Orn)-NH2]

Ki [1]: 0.5 nM | EC50, cAMP, 10 ng/mL Doxycycline [2]: 0.14 nM | Intrinsic Activity, cAMP, 0.1 ng/mL Doxycycline [2]: 32% | Intrinsic Activity, cAMP, 10 ng/mL Doxycycline [2]: 94%
B1: Ac-Arg-cyclo(Glu-Arg-D-Phe(3-Cl)-Arg-Trp-Orn)-NH2 (peptide)
peptide: Ac-RER[dPhe(3-Cl)]RW[Orn]-NH2
modifications: lactam 2-7
SMILES: CC(=O)N[C@@H](CCCNC(=N)N)C(=O)N[C@H]1CCC(=O)NCCC[C@@H](C(N)=O)NC(=O)[C@H](Cc2c[nH]c3ccccc23)NC(=O)[C@H](CCCNC(=N)N)NC(=O)[C@@H](Cc2cccc(Cl)c2)NC(=O)[C@H](CCCNC(=N)N)NC1=O
notes: also called No. 99
